{
  "source": "patent US20250011363A1",
  "about": "“OPTIMIZED SHORTENED PEPTIDE THAT BINDS TO ACETYLCHOLINE RECEPTOR, AND USE THEREOF” (SKINMED CO., LTD., priority 2021, published 2025)",
  "data": [
    {"molecular_target": "acetylcholine receptor", "test": "SPR, AchR immobilized on chip", "units": {"Binding affinity (RU)": "RU"}, "values": [
      {"binder": "KWRQKR", "note": "[6mer-2-233]", "Binding affinity (RU)": 190}
    ]},
    {"molecular_target": "acetylcholine receptor", "test": "SPR, receptor immobilised on chip, peptide at 10 µM", "units": {"Binding affinity": "RU"}, "values": [
      {"binder": "RSFSKR", "note": "[6mer-2-468]", "Binding affinity": 133},
      {"binder": "KVYRRK", "note": "[6mer-2-488]", "Binding affinity": 146},
      {"binder": "RSRLRR", "note": "[6mer-2-472]", "Binding affinity": 148},
      {"binder": "RQIQKR", "note": "[6mer-2-485]", "Binding affinity": 148},
      {"binder": "RVRYRK", "note": "[6mer-2-496]", "Binding affinity": 144},
      {"binder": "KGLCRR", "note": "[6mer-2-498]", "Binding affinity": 127},
      {"binder": "KSYSKK", "note": "[6mer-2-501]", "Binding affinity": 144},
      {"binder": "RRYQKK", "note": "[6mer-2-490]", "Binding affinity": 145},
      {"binder": "RLFTKR", "note": "[6mer-2-499]", "Binding affinity": 145},
      {"binder": "RLIQKK", "note": "[6mer-2-492]", "Binding affinity": 148},
      {"binder": "KGLLRR", "note": "[6mer-2-494]", "Binding affinity": 144},
      {"binder": "KRICKR", "note": "[6mer-2-491]", "Binding affinity": 135},
      {"binder": "RLRTKK", "note": "[6mer-2-469]", "Binding affinity": 153},
      {"binder": "RGRLRK", "note": "[6mer-2-473]", "Binding affinity": 131},
      {"binder": "RVISKK", "note": "[6mer-2-489]", "Binding affinity": 142},
      {"binder": "KWYTRK", "note": "[6mer-2-478]", "Binding affinity": 145},
      {"binder": "RWYTKR", "note": "[6mer-2-484]", "Binding affinity": 148},
      {"binder": "KWRLKK", "note": "[6mer-2-479]", "Binding affinity": 154},
      {"binder": "RRYLKK", "note": "[6mer-2-483]", "Binding affinity": 121},
      {"binder": "RQRYKK", "note": "[6mer-2-481]", "Binding affinity": 131},
      {"binder": "KSYTKR", "note": "[6mer-2-487]", "Binding affinity": 121},
      {"binder": "RSRTRR", "note": "[6mer-2-477]", "Binding affinity": 135},
      {"binder": "KWISRR", "note": "[6mer-2-471]", "Binding affinity": 136},
      {"binder": "KSYTRR", "note": "[6mer-2-497]", "Binding affinity": 148},
      {"binder": "KQQSKK", "note": "[6mer-2-486]", "Binding affinity": 121},
      {"binder": "KRFCRR", "note": "[6mer-2-475]", "Binding affinity": 139},
      {"binder": "KGIRKK", "note": "[6mer-2-476]", "Binding affinity": 148},
      {"binder": "KLLCKK", "note": "[6mer-2-495]", "Binding affinity": 121},
      {"binder": "RLRRRK", "note": "[6mer-2-470]", "Binding affinity": 153},
      {"binder": "RRFTKK", "note": "[6mer-2-480]", "Binding affinity": 147},
      {"binder": "KGQTRR", "note": "[6mer-2-482]", "Binding affinity": 154},
      {"binder": "RWQQRR", "note": "[6mer-2-474]", "Binding affinity": 128},
      {"binder": "KGVRRK", "note": "[6mer-2-493]", "Binding affinity": 123},
      {"binder": "KRICRR", "note": "[6mer-2-500]", "Binding affinity": 146}
    ]},
    {"molecular_target": "acetylcholine receptor", "test": "SPR, AchR immobilized on CM5 chip, peptide 10 µM", "units": {"Binding affinity (RU)": "RU"}, "values": [
      {"binder": "RQICKK", "note": "[6mer-2-268]", "Binding affinity (RU)": 139},
      {"binder": "KSQQKR", "note": "[6mer-2-256]", "Binding affinity (RU)": 142},
      {"binder": "KLRSRR", "note": "[6mer-2-253]", "Binding affinity (RU)": 145},
      {"binder": "KWISKK", "note": "[6mer-2-246]", "Binding affinity (RU)": 123},
      {"binder": "RSYTRR", "note": "[6mer-2-248]", "Binding affinity (RU)": 154},
      {"binder": "KRFCRK", "note": "[6mer-2-257]", "Binding affinity (RU)": 144},
      {"binder": "RRFSKR", "note": "[6mer-2-244]", "Binding affinity (RU)": 139},
      {"binder": "KGQCKK", "note": "[6mer-2-228]", "Binding affinity (RU)": 141},
      {"binder": "RWYTKK", "note": "[6mer-2-261]", "Binding affinity (RU)": 121},
      {"binder": "RRFCKR", "note": "[6mer-2-260]", "Binding affinity (RU)": 142},
      {"binder": "RRICKR", "note": "[6mer-2-263]", "Binding affinity (RU)": 145},
      {"binder": "RRRCRK", "note": "[6mer-2-240]", "Binding affinity (RU)": 142},
      {"binder": "RSQTKR", "note": "[6mer-2-234]", "Binding affinity (RU)": 142},
      {"binder": "KLYSRR", "note": "[6mer-2-267]", "Binding affinity (RU)": 141},
      {"binder": "KQLTKR", "note": "[6mer-2-241]", "Binding affinity (RU)": 135},
      {"binder": "RWIQRR", "note": "[6mer-2-230]", "Binding affinity (RU)": 135},
      {"binder": "KQFTRK", "note": "[6mer-2-232]", "Binding affinity (RU)": 135},
      {"binder": "KVFRKK", "note": "[6mer-2-252]", "Binding affinity (RU)": 148},
      {"binder": "RWQTKK", "note": "[6mer-2-266]", "Binding affinity (RU)": 131},
      {"binder": "KGISKK", "note": "[6mer-2-231]", "Binding affinity (RU)": 144},
      {"binder": "KSQRRR", "note": "[6mer-2-242]", "Binding affinity (RU)": 135},
      {"binder": "KWQQKK", "note": "[6mer-2-236]", "Binding affinity (RU)": 131},
      {"binder": "RLVYKR", "note": "[6mer-2-237]", "Binding affinity (RU)": 123},
      {"binder": "KRVLKR", "note": "[6mer-2-243]", "Binding affinity (RU)": 148},
      {"binder": "RGLRKR", "note": "[6mer-2-249]", "Binding affinity (RU)": 136},
      {"binder": "RVQSKR", "note": "[6mer-2-259]", "Binding affinity (RU)": 128},
      {"binder": "KWILKR", "note": "[6mer-2-262]", "Binding affinity (RU)": 142},
      {"binder": "KRIYRR", "note": "[6mer-2-258]", "Binding affinity (RU)": 125},
      {"binder": "KLQRRK", "note": "[6mer-2-227]", "Binding affinity (RU)": 147},
      {"binder": "RLLCKR", "note": "[6mer-2-226]", "Binding affinity (RU)": 154},
      {"binder": "KRRRKK", "note": "[6mer-2-250]", "Binding affinity (RU)": 145},
      {"binder": "KSQTKR", "note": "[6mer-2-251]", "Binding affinity (RU)": 142},
      {"binder": "KRIQRR", "note": "[6mer-2-254]", "Binding affinity (RU)": 148},
      {"binder": "RLRRKK", "note": "[6mer-2-255]", "Binding affinity (RU)": 139},
      {"binder": "KWRQKR", "note": "[6mer-2-233]", "Binding affinity (RU)": 190},
      {"binder": "KSQLKR", "note": "[6mer-2-264]", "Binding affinity (RU)": 127},
      {"binder": "KRLLRR", "note": "[6mer-2-225]", "Binding affinity (RU)": 145},
      {"binder": "RRRRRK", "note": "[6mer-2-238]", "Binding affinity (RU)": 142},
      {"binder": "RGQYKK", "note": "[6mer-2-239]", "Binding affinity (RU)": 125},
      {"binder": "KLVRKK", "note": "[6mer-2-235]", "Binding affinity (RU)": 136},
      {"binder": "RRQTRK", "note": "[6mer-2-265]", "Binding affinity (RU)": 135},
      {"binder": "RWQSKK", "note": "[6mer-2-229]", "Binding affinity (RU)": 127},
      {"binder": "KGYQKK", "note": "[6mer-2-247]", "Binding affinity (RU)": 146},
      {"binder": "RSLSKR", "note": "[6mer-2-245]", "Binding affinity (RU)": 135}
    ]}
  ]
}
